Source: paper PMC6695518
One block for each substance: values may come before it.

How the values were obtained:
[1] = tested on: TbMex67 (Trypanosoma brucei); assay: filter binding; conditions: TbMex67 alone; 10 mM Tris-HCl pH 7.4, 100 mM NaCl, 1 mM EDTA, 100 ug/ml BSA, 0.05 nM RNA, 0-200 nM protein, 30 min, room temperature; RNA preheated 55 C 10 min then ice
[2] = tested on: TbMex67;TbMtr2 (Trypanosoma brucei;Trypanosoma brucei); assay: filter binding; conditions: TbMex67 and TbMtr2 preincubated together; Kd in total TbMex67; 10 mM Tris-HCl pH 7.4, 100 mM NaCl, 1 mM EDTA, 100 ug/ml BSA, 0.05 nM RNA, 0-200 nM protein, 30 min, room temperature; RNA preheated 55 C 10 min then ice
[3] = target: P34/P37, endogenous; assay: co-IP; in vivo immune capture as above, with RNase A (50 ug) added to the whole-cell extract; Western blot for TbMex67; input set at 1.0
[4] = target: ribosomal protein L5, endogenous (Trypanosoma brucei brucei strain 427 (endogenous in procyclic cells)); assay: as above
[5] = target: P34/P37, endogenous; assay: co-IP; in vivo immune capture: 100 ug procyclic whole-cell extract with anti-P34/P37 or anti-L5 cross-linked protein A Dynabeads, PBS with 10 mg/ml BSA, 1 h at 4°C, without RNase A; Western blot for TbMex67; input set at 1.0
[6] = target: ribosomal protein L5, endogenous (Trypanosoma brucei brucei strain 427 (endogenous in procyclic cells)); assay: as above
[7] = target: recombinant His-tagged L5 (Trypanosoma brucei); assay: co-IP; recombinant immune capture as above, with in vitro-transcribed 5S rRNA added before the proteins at an equal molar ratio; Western blot
[8] = target: recombinant His-tagged P34 (Trypanosoma brucei); assay: as above

Substance: 5S rRNA
Kd [1]: 41 nM
Kd [2]: 10 nM

Substance: Trypanosoma brucei Mex67 (TbMex67), endogenous (natural protein)
relative amount of TbMex67 in the pellet, with RNase A (relative to input set at 1.0) [3]: 0.53
amount of TbMex67 in the pellet, with RNase A (relative to input set at 1.0) [4]: 0.8
relative total amount of TbMex67 in the pellet fraction (relative to input set at 1.0) [5]: 0.35
fraction of the total amount of TbMex67 associated with L5 (relative to input set at 1.0) [6]: 0.43

ratio of TbMex67 in the pellet with 5S rRNA to without [7]: 0.94
ratio of TbMex67 in the pellet with 5S rRNA to without [8]: 0.94
Substance: recombinant His-tagged TbMex67 (natural protein)
